Substitutions are numbered along the chain they refer to. In names and notes the source's numbering stands. Each block holds one binder with its values, some of them ahead of it.
How the values were obtained:
[1] = molecular target: T1, N-terminally TAMRA-labeled monoubiquitin (UniProt P0CG48 1-76, TAMRA on the N-terminus); test: fluorescence polarisation; equilibrium binding of USP4 to TAMRA-labelled ubiquitin species; as described in ref. 32; conditions: both partners purified
T1 construct: ubiquitin with a free C-terminus; also called TAMRA-monoubiquitin; ubiquitin labeled with an N-terminal fluorophore

[2] = molecular target: T2, ubiquitin (untagged) (UniProt P0CG48 1-76); test: ITC; 30 μM DUBm in the cell, 0.3 mM K48-linked diubiquitin or monoubiquitin injected; 25°C; 20 mM HEPES pH 7, 150 mM NaCl, 5 nM ZnCl2, 0.5 mM TCEP; one-site binding model; conditions: both partners purified
T2 construct: ubiquitin, untagged (pET3a), free C-terminus at Gly76; also called monoubiquitin; free ubiquitin; source: E. coli Rosetta 2, purified (perchloric acid, HiTrap SP, HiLoad S75)

B3: SAGA DUB module containing Ubp8^C146A (complex, yeast)
chain 1: MSICPHIQQVFQNEKSKDGVLKTCNAARYILNHSVPKEKFLNTMKCGTCHEINSGATFMCLQCGFCGCWNHSHFLSHSKQIGHIFGINSNNGLLFCFKCEDYIGNIDLINDAILAKYWDDVCTKTMVPSMERRDGLSGLINMGSTAFMSSILQCLIHNPYFIRHSMSQIHSNNCKVRSPDKCFSCALDKIVHELYGALNTKQASSSSTSTNRQTGFIYLLTCAWKINQNLAGYSQQDAHEFWQFIINQIHQSYVLDLPNAKEVSRANNKQCECIVHTVFEGSLESSIVCPGCQNNSKTTIDPFLDLSLDIKDKKKLYECLDSFHKKEQLKDFNYHCGECNSTQDAIKQLGIHKLPSVLVLQLKRFEHLLNGSNRKLDDFIEFPTYLNMKNYCSTKEKDKHSENGKVPDIIYELIGIVSHKGTVNEGHYIAFCKISGGQWFKFNDSMVSSISQEEVLKEQAYLLFYTIRQVN
chain 2: MTEETITIDSISNGILNNLLTTLIQDIVARETTQQQLLKTRYPDLRSYYFDPNGSLDINGLQKQQESSQYIHCENCGRDVSANRLAAHLQRCLSRGARR
chain 3: MTMDTAQLKSQIQQYLVESGNYELISNELKARLLQEGWVDKVKDLTKSEMNINESTNFTQILSTVEPKALEMVSDSTRETVLKQIREFLEEIVDTQ
chain 4: MRSGDAEIKGIKPKVIEEYSLSQGSGPSNDSWKSLMSSAKDTPLQYDHMNRESLKKYFNPNAQLIEDPLDKPIQYRVCEKCGKPLALTAIVDHLEN
notes: Ubp8, catalytic USP subunit of the yeast SAGA DUB module, active site cysteine changed; Sgf11, subunit of the yeast SAGA DUB module (pCDFDuet-1 MCSI); Sus1, subunit of the yeast SAGA DUB module (pRSF-1); Sgf73 residues 1-96, subunit of the yeast SAGA DUB module (pCDFDuet-1 MCSII); Heterotetramer; also called DUBm-Ubp8^C146A; DUB module-Ubp8^C146A; copies: + + +
- Kd [2]: 0.43 µM

B4: SAGA DUB module containing Ubp8^C146S (complex, yeast)
chain 1: B3 chain 1 with A146S
chain 2: B3 chain 2
chain 3: B3 chain 3
chain 4: B3 chain 4
notes: Ubp8, catalytic USP subunit of the yeast SAGA DUB module, active site cysteine changed; Sgf11, subunit of the yeast SAGA DUB module (pCDFDuet-1 MCSI); Sus1, subunit of the yeast SAGA DUB module (pRSF-1); Sgf73 residues 1-96, subunit of the yeast SAGA DUB module (pCDFDuet-1 MCSII); Heterotetramer; also called DUBm-Ubp8^C146S; copies: + + +
- Kd [2]: 12.8 µM

Further lines, results first:

- Kd [1]: 0.0006 ± 0.00017 µM
B1: USP4 (8-925) C311A (enzyme, human, UniProt Q13107 8-925, looked up)
chain: RERPDAETQKSELGPLMRTTLQRGAQWYLIDSRWFKQWKKYVGFDSWDMYNVGEHNLFPGPIDNSGLFSDPESQTLKEHLIDELDYVLVPTEAWNKLLNWYGCVEGQQPIVRKVVEHGLFVKHCKVEVYLLELKLCENSDPTNVLSCHFSKADTIATIEKEMRKLFNIPAERETRLWNKYMSNTYEQLSKLDNTVQDAGLYQGQVLVIEPQNEDGTWPRQTLQSKSSTAPSRNFTTSPKSSASPYSSVSASLIANGDSTSTCGMHSSGVSRGGSGFSASYNCQEPPSSHIQPGLCGLGNLGNTAFMNSALQCLSNTAPLTDYFLKDEYEAEINRDNPLGMKGEIAEAYAELIKQMWSGRDAHVAPRMFKTQVGRFAPQFSGYQQQDSQELLAFLLDGLHEDLNRVKKKPYLELKDANGRPDAVVAKEAWENHRLRNDSVIVDTFHGLFKSTLVCPECAKVSVTFDPFCYLTLPLPLKKDRVMEVFLVPADPHCRPTQYRVTVPLMGAVSDLCEALSRLSGIAAENMVVADVYNHRFHKIFQMDEGLNHIMPRDDIFVYEVCSTSVDGSECVTLPVYFRERKSRPSSTSSASALYGQPLLLSVPKHKLTLESLYQAVCDRISRYVKQPLPDEFGSSPLEPGACNGSRNSCEGEDEEEMEHQEEGKEQLSETEGSGEDEPGNDPSETTQKKIKGQPCPKRLFTFSLVNSYGTADINSLAADGKLLKLNSRSTLAMDWDSETRRLYYDEQESEAYEKHVSMLQPQKKKKTTVALRDCIELFTTMETLGEHDPWYCPNCKKHQQATKKFDLWSLPKILVVHLKRFSYNRYWRDKLDTVVEFPIRGLNMSEFVCNLSARPYVYDLIAVSNHYGAMGVGHYTAYAKNKLNGKWYYFDDSNVSLASEDQIVTKAAYVLFYQRRDD
notes: human USP4, residues 8-925, active site cysteine C311 changed to alanine; also called USP4^C311A; USP4 C311A

- Kd [2]: 13.9 µM
B2: SAGA DUB module containing wild-type Ubp8 (complex, yeast)
chain 1: B3 chain 1 with A146C
chain 2: B3 chain 2
chain 3: B3 chain 3
chain 4: B3 chain 4
notes: Ubp8, catalytic USP subunit of the yeast SAGA DUB module; Sgf11, subunit of the yeast SAGA DUB module (pCDFDuet-1 MCSI); Sus1, subunit of the yeast SAGA DUB module (pRSF-1); Sgf73 residues 1-96, subunit of the yeast SAGA DUB module (pCDFDuet-1 MCSII); Heterotetramer; also called DUBm-Ubp8^WT; wild-type DUBm; copies: + + +

Source: PMC6172466 (EMBO Reports, 2018)
